Data taken from US8299032B2, “Self-assembling peptide and gel produced from the same” (Menicon Co., Ltd., priority 2005, dated 2012).

How the values were obtained:
Assay type in all cases: physicochemical
[1] = Gel formation, test tube placed up-side-down; design: key to Gel Formation: Excellent: those in which the contents did not drop off were evaluated as the gel formation being “excellent”; Poor: those in which the contents dropped off were evaluated as being “poor.”; settings: 37° C. for 24 hours; for Gel Formation: peptide 0.5% by weight; for gel formation in neutral aqueous solution (summary of Table 11): neutral aqueous solutions, 0.5% by weight
Description: Peptide Nos. 1, 2, 4, 5, 6, 10 and 11 synthesized in Production Examples 1 and 2 were dissolved in each of aqueous solutions listed in Table 11. A 1.5 mL test tube was charged with 1 mL of the resulting peptide-containing aqueous solution. Next, the test tube was allowed to stand at 37° C. for 24 hours.

[2] = Dynamic viscoelasticity of peptide aqueous solution (storage modulus G′, loss modulus G″); settings: 0.5 wt %, acidic aqueous solution (pH 3.5)
Excerpt: In addition, the term “gel” as used herein refers to a viscoelastic substance having both viscous property and elastic property. Concretely, the gel refers to a substance satisfying the formula G′>G″, in a case where the gel is subjected to dynamic viscoelasticity measurement to determine a storage elastic modulus G′ and a loss elastic modulus G″.
The dynamic viscoelasticity can be determined with a dynamic viscoelasticity measurement apparatus as described in Examples set forth below. Concretely, the dynamic viscoelasticity can be determined by placing a sample on an iron plate, compressing the sample with an iron cone, and monitoring a stress applied to a motor rotating the iron cone when the cone is rotated.
The storage elastic modulus G′ and the loss elastic modulus G″ of a 0.5% by weight peptide (Peptide Nos. 1 to 10 mentioned above)-containing aqueous solution were determined with an instrument under the trade name of AR1000 (manufactured by TA Instruments Japan). […] Next, the 0.5% by weight peptide-containing aqueous solution was compressed, and a stress applied to a motor was monitored when the iron cone was rotated, while varying the frequency of the cone within the range of 0.1 to 10 rad/sec.

[3] = Visible light transmittance of peptide gel (380 to 780 nm); settings: for Visible Light Transmittance (average, 380 to 780 nm): gel of 0.5% by weight peptide in 0.1 M Tris-HCl (pH 7.5), optical path length 10 mm; for decreasing ratio of visible light transmittance: after 2 months at room temperature versus before storage; for visible light transmittance (average) after standing: gel allowed to stand at room temperature for 2 months; for long-term stability of gel (no white turbidity): room temperature, 2 months
Excerpt: In a case where the gel of the present invention is used, for example, as a scaffold for a three-dimensional culture of the cells, it is desired that the used concentration of the self-assembling peptide of the present invention upon gel formation in a medium for cell culture is preferably 0.3% by weight or more, and more preferably 0.5% by weight or more, from the viewpoint of easiness in gel formation, and that the used concentration of the peptide is preferably 5% by weight or less, and more preferably 2% by weight or less, from the viewpoint of easy miscibility with the cells. In addition, in such a case, it is preferable that the gel is transparent, from the viewpoint of easiness in cell observation with a fluorescent microscope or the like. For example, in a gel containing 0.5% by weight of a self-assembling peptide, it is desired that the visible light transmittance which is determined in terms of absorbance at 380 to 780 nm in a cell having an optical path of 10 mm is at least 50%/cm, and it is desired that the visible light transmittance is preferably 70%/cm or more, and more preferably 90% 1 cm or more. Further, it is desired that the visible light transmittance of the gel after allowing it to stand at room temperature for a long period of time, for example, 2 months, is preferably 50%/cm or more, more preferably 70%/cm or more, and even more preferably 90%/cm or more, from the viewpoint of long-term stability of the gel, and that the decreasing ratio (%) of the visible light transmittance (100−(visible light transmittance after storage/visible light transmittance before storage×100)) is preferably 30% or less, more preferably 20% or less, and even more preferably 10% or less. The transparency of the gel can be determined with UV/VIS measurement apparatus as described in Examples set forth below.
Peptide Nos. 1 to 9 synthesized in Production Examples 1 and 2 were dissolved in 0.1 M Tris-HCl (pH 7.5), to prepare a gel composed of a 0.5% by weight peptide solution. The visible light transmittance of the prepared gel within the range of from 380 to 780 nm was determined using a cell having an optical path length of 10 mm and trade name V-550 UV/VIS Spectrometer (manufactured by JASCO).
Therefore, it could be seen that each of Peptide Nos. 1 to 9 mentioned above formed a transparent gel. In addition, of the above gels, the gel comprising each of Peptide Nos. 1, 4, 6, or 7 was allowed to stand at room temperature for 2 months, and the visible light transmittance was determined in the same manner as above. As a result, an average thereof was respectively 88, 87, 91, or 93%/cm, and the decreasing ratio was respectively 9.3, 5.4, 6.2, or 4.1%. In other words, the gel after 2 months passed from the preparation also maintained high visible light transmittance.

[4] = Confirmation of beta-sheet structure formation by circular dichroism measurement; settings: 3×10^−3 M peptide in 0.1 M Tris-HCl (pH 7.5)
Description: The formation of each of the beta (β)-sheet structures of Peptide Nos. 1 to 9 and 12 synthesized in Production Examples 1 and 2 mentioned above was confirmed in accordance with circular dichroism measurement method. Concretely, each of the peptides was dissolved in 0.1 M Tris-HCl (pH 7.5) to prepare a 3×10^−3 M peptide solution. The resulting peptide solution was filled into a quartz cell having an optical path length of 0.5 mm (manufactured by JASCO, trade name: 110J cylindrical cell, volume: 0.04 mL), and the quartz cell was set in trade name J-820K Spectropolarimeter (manufactured by JASCO), and the molar ellipticities at 195 to 260 nm for the peptide solutions were determined in accordance with the circular dichroism measurement method.

| Sequence | Gel Formation ([1]; PBS pH 7.4) | gel formation in neutral aqueous solution (summary of Table 11) [1] | Visible Light Transmittance (average, 380 to 780 nm) [3] | decreasing ratio of visible light transmittance [3] | visible light transmittance (average) after standing [3] | long-term stability of gel (no white turbidity) [3] | Gel Formation ([1]; Tris-HCl 0.1 M pH 7.5) | other results |
| --- | --- | --- | --- | --- | --- | --- | --- | --- |
| RADARADARADARADA [Peptide No. 10, reference compound] | Poor | did not form into gel in a neutral aqueous solution | – | – | – | – | – | gel formation by dynamic viscoelasticity [2]: formed the gel in an acidic aqueous solution |
| SAEAKAEASAEAKAEA (Synthetic self-assembling peptide of the invention) [Peptide No. 9, self-assembling peptide of the present invention] | – | – | 93% | – | – | – | – | – |
| RASARASARASARADA (Synthetic self-assembling peptide of the invention) [Peptide No. 6, self-assembling peptide of the present invention] | – | formed into gel in various neutral aqueous solutions | 97% | 6.2% | 91 %/cm | stable for a long period of time without becoming white turbid | Excellent | – |
| RANARADARANARADA (Synthetic self-assembling peptide of the invention) [Peptide No. 2, self-assembling peptide of the present invention] | – | formed into gel in various neutral aqueous solutions | 77% | – | – | – | Excellent | – |
| HKHQHDHKHQHDHKHQHD (Synthetic peptide which is not a peptide of the invention) [Peptide No. 12, peptide not having a nonpolar amino acid residue, not a peptide of the present invention] | – | – | – | – | – | – | – | formation of beta (β)-sheet structure in aqueous solution [4]: did not form a beta(β)-sheet structure |
| RASARADARASARADA (Synthetic self-assembling peptide of the invention) [Peptide No. 1, self-assembling peptide of the present invention] | Excellent | formed into gel in various neutral aqueous solutions | 97% | 9.3% | 88 %/cm | stable for a long period of time without becoming white turbid | Excellent | Gel Formation ([1]; D-MEM/F12(1:1) Medium pH 7.5): Excellent; Gel Formation ([1]; Tris-HCl 0.05 M pH 7.5): Excellent; Gel Formation ([1]; Tris-HCl 0.2 M pH 7.5): Excellent; Gel Formation ([1]; Tris-HCl 0.4 M pH 7.5): Excellent; Gel Formation ([1]; Tris-HCl 0.6 M pH 7.5): Excellent; Gel Formation ([1]; Tris-HCl 0.8 M pH 7.5): Excellent; Gel Formation ([1]; Tris-HCl 1 M pH 7.5): Excellent |
| RFDFRFDFRFDFRFDF (Synthetic peptide which is not a peptide of the invention) [compound 11, comparative peptide, which is not self-assembling peptide of the present invention; charge at pH 7.0 is 0, reference compound] | Poor | did not form into gel in a neutral aqueous solution | – | – | – | – | – | – |
| RASARADARASA (Synthetic self-assembling peptide of the invention) [Peptide No. 7, self-assembling peptide of the present invention] | – | – | 97% | 4.1% | 93 %/cm | stable for a long period of time without becoming white turbid | – | – |
| RAAARADARAAARADA (Synthetic self-assembling peptide of the invention) [Peptide No. 3, self-assembling peptide of the present invention] | – | – | 91% | – | – | – | – | – |
| RASARADARADARASA (Synthetic self-assembling peptide of the invention) [Peptide No. 4, self-assembling peptide of the present invention] | Excellent | formed into gel in various neutral aqueous solutions | 92% | 5.4% | 87 %/cm | stable for a long period of time without becoming white turbid | Excellent | Gel Formation ([1]; Tris-HCl 0.05 M pH 7.5): Excellent; Gel Formation ([1]; Tris-HCl 0.2 M pH 7.5): Excellent; Gel Formation ([1]; Tris-HCl 0.4 M pH 7.5): Excellent; Gel Formation ([1]; Tris-HCl 0.6 M pH 7.5): Excellent; Gel Formation ([1]; Tris-HCl 0.8 M pH 7.5): Excellent; Gel Formation ([1]; Tris-HCl 1 M pH 7.5): Excellent |
| RADARASARASARADA (Synthetic self-assembling peptide of the invention) [Peptide No. 5, self-assembling peptide of the present invention] | – | formed into gel in various neutral aqueous solutions | 78% | – | – | – | Excellent | – |
| KASAKAEAKASAKAEA (Synthetic self-assembling peptide of the invention) [Peptide No. 8, self-assembling peptide of the present invention] | – | – | 94% | – | – | – | – | – |
